First the molecules themselves.
B1: Protein deacetylase HDAC6 (Homo sapiens), Q9UBN7 (parent)
chain: MTSTGQDSTTTRQRRSRQNPQSPPQDSSVTSKRNIKKGAVPRSIPNLAEVKKKGKMKKLGQAMEEDLIVGLQGMDLNLEAEALAGTGLVLDEQLNEFHCLWDDSFPEGPERLHAIKEQLIQEGLLDRCVSFQARFAEKEELMLVHSLEYIDLMETTQYMNEGELRVLADTYDSVYLHPNSYSCACLASGSVLRLVDAVLGAEIRNGMAIIRPPGHHAQHSLMDGYCMFNHVAVAARYAQQKHRIRRVLIVDWDVHHGQGTQFTFDQDPSVLYFSIHRYEQGRFWPHLKASNWSTTGFGQGQGYTINVPWNQVGMRDADYIAAFLHVLLPVALEFQPQLVLVAAGFDALQGDPKGEMAATPAGFAQLTHLLMGLAGGKLILSLEGGYNLRALAEGVSASLHTLLGDPCPMLESPGAPCRSAQASVSCALEALEPFWEVLVRSTETVERDNMEEDNVEESEEEGPWEPPVLPILTWPVLQSRTGLVYDQNMMNHCNLWDSHHPEVPQRILRIMCRLEELGLAGRCLTLTPRPATEAELLTCHSAEYVGHLRATEKMKTRELHRESSNFDSIYICPSTFACAQLATGAACRLVEAVLSGEVLNGAAVVRPPGHHAEQDAACGFCFFNSVAVAARHAQTISGHALRILIVDWDVHHGNGTQHMFEDDPSVLYVSLHRYDHGTFFPMGDEGASSQIGRAAGTGFTVNVAWNGPRMGDADYLAAWHRLVLPIAYEFNPELVLVSAGFDAARGDPLGGCQVSPEGYAHLTHLLMGLASGRIILILEGGYNLTSISESMAACTRSLLGDPPPLLTLPRPPLSGALASITETIQVHRRYWRSLRVMKVEDREGPSSSKLVTKKAPQPAKPRLAERMTTREKKVLEAGMGKVTSASFGEESTPGQTNSETAVVALTQDQPSEAATGGATLAQTISEAAIGGAMLGQTTSEEAVGGATPDQTTSEETVGGAILDQTTSEDAVGGATLGQTTSEEAVGGATLAQTTSEAAMEGATLDQTTSEEAPGGTELIQTPLASSTDHQTPPTSPVQGTTPQISPSTLIGSLRTLELGSESQGASESQAPGEENLLGEAAGGQDMADSMLMQGSRGLTDQAIFYAVTPLPWCPHLVAVCPIPAAGLDVTQPCGDCGTIQENWVCLSCYQVYCGRYINGHMLQHHGNSGHPLVLSYIDLSAWCYYCQAYVHHQALLDVKNIAHQNKFGEDMPHPH

The results in this text go back to IntAct's records for PubMed 29281743.

Variants of B1 are the subject of the assay. Conditions: with myd88_human MYD88, Q99836.
myd88_human MYD88, Q99836, sequence (Q99836 whole entry): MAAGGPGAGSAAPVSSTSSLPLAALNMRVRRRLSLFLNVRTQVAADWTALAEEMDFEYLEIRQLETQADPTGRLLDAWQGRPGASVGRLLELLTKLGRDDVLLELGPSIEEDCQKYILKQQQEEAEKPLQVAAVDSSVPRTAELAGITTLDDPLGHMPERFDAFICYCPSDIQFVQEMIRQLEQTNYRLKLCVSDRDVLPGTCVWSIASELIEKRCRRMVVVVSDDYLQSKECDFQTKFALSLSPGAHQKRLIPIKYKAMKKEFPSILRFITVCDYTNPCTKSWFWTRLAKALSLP
As to H216A;H611A, the “effect of a mutation on the interaction” value is recorded as “with no effect”.
